# Source: PMC6044767
# “And” between values parts separate entries of the source, which are not always exact repeats. Equal values may be shown once.
# T1: N21-EcAII (E. coli K12), P00805
# T1 chain: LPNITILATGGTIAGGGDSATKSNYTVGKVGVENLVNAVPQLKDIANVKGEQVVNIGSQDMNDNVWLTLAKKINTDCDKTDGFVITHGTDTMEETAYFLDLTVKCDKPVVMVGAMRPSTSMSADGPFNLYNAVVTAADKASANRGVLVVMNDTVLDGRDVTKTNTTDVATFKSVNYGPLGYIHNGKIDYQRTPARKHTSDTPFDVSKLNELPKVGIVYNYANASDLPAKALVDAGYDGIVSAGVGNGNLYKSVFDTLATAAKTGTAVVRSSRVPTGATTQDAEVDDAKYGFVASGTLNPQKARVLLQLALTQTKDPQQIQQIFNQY
# T2: C8-EcAII (E. coli K12), P00805
# T2 chain: T1 chain
# T3: N26-EcAII (E. coli K12), P00805
# T3 chain: T1 chain
# B1: N21-EcAII, P00805 23-348 (enzyme)
# chain: T1 chain
# B2: C8-EcAII, P00805 23-348 (enzyme)
# chain: T1 chain
# B3: N26-EcAII, P00805 23-348 (enzyme)
# chain: T1 chain
# Experiments:
# [1] = target: native Escherichia coli L-asparaginase II (Kidrolase) (E. coli) (UniProt P00805)
# [2] = target: native Escherichia coli L-asparaginase II (Kidrolase) (E. coli) (UniProt P00805); remark: listed apart in the source
# [3] = target: native Escherichia coli L-asparaginase II (Kidrolase) (E. coli) (UniProt P00805); test: native gel or EMSA
# [4] = target: native Escherichia coli L-asparaginase II (Kidrolase) (E. coli) (UniProt P00805); test: native gel or EMSA; remark: listed apart in the source
# [5] = target: native Escherichia coli L-asparaginase II (Kidrolase) (E. coli) (UniProt P00805); test: SEC
# [6] = target: T1, N21-EcAII (E. coli K12), P00805; test: SEC; conditions: remark: other sources report otherwise
# [7] = target: T1, N21-EcAII (E. coli K12), P00805; test: SEC; conditions: remark: other sources report otherwise
# [8] = target: T2, C8-EcAII (E. coli K12), P00805; test: SEC; conditions: remark: other sources report otherwise
# [9] = target: T2, C8-EcAII (E. coli K12), P00805; test: native gel or EMSA; conditions: remark: other sources report otherwise
# [10] = target: T2, C8-EcAII (E. coli K12), P00805; test: SEC; conditions: remark: other sources report otherwise
# [11] = target: T3, N26-EcAII (E. coli K12), P00805; test: SEC; conditions: remark: other sources report otherwise
# [12] = target: T3, N26-EcAII (E. coli K12), P00805; test: native gel or EMSA; conditions: remark: other sources report otherwise
# [13] = target: T3, N26-EcAII (E. coli K12), P00805; test: SEC; conditions: remark: other sources report otherwise
molecule,measurement,setting,value
native Escherichia coli L-asparaginase II (Kidrolase) (from UniProt P00805 23-348) (enzyme),specific activity in solution (GDH-coupled assay),[1],118 U mg^–1
same,specific activity of EcAII immobilized on gold chips (GDH-coupled assay),[2],310 U mg^–1
same,stoichiometry N,[3],4 and 8 and 12
same,stoichiometry N,[4],8 and 12 and 4
same,stoichiometry N,[5],4 and 8 and 12
B1,stoichiometry N,[6],4
same,stoichiometry N,[7],8 and 12 and 4
B2,stoichiometry N,[8],4
same,percent dissociated into monomer,[9],50%
same,stoichiometry N,[9],4 and 8
same,stoichiometry N,[10],4
B3,stoichiometry N,[11],4
same,stoichiometry N,[12],4
same,stoichiometry N,[13],4
